Assays:
[1] = test system: mUCP3 promoter; test: NHR-promoter luciferase screen, mUCP3 promoter; format: cell-based, mouse; conditions: for Normalized Luc. act., normalized to control / Luc. act., normalized to lacZ: mUCP3 promoter reporter; for Normalized Luc. act., normalized to control: HR without or with its ligand, relative to control; for Luc. act., normalized to lacZ: hormone receptor (HR) without or with its ligand; for mUCP3 promoter reporter activity: transcription factor +/- ligand, control = 1.00
How it was run: (§1)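 CV-1 cells were co-transfected with 50 ng NHR (homodimer or NHR/RXR heterodimer), 100 ng promoter-luciferase construct and 50 ng LacZ. Luciferase was normalized to LacZ and to a no-NHR/no-ligand control.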

[2] = test system: mLeptin promoter; test: NHR-promoter luciferase screen, mLeptin promoter; format: cell-based, mouse; conditions: for Luc. act., normalized to lacZ / Normalized Luc. act., normalized to control: Table 7, mLeptin; for Results of assays of transcription factor (+/- ligand) with mLeptin: Table 6d, luciferase activity relative to control (control = 1.00); for luciferase/LacZ, mLeptin (selected results): mLeptin promoter-luciferase, NHR +/- ligand, control = 1.0
How it was run: as §1

[3] = test system: hMDR1 promoter; test: NHR-promoter luciferase screen, hMDR1 promoter; format: cell-based, human; conditions: for Luc. act., normalized to lacZ / Normalized Luc. act., normalized to control: MDR1 promoter, HR/ligand component; for hMDR1 promoter reporter activity: transcription factor +/- ligand, control = 1.00
How it was run: as §1

[4] = test system: mGhrelin promoter; test: NHR-promoter luciferase screen, mGhrelin promoter; format: cell-based, mouse; conditions: for Luc. act., normalized to lacZ / Normalized Luc. act., normalized to control: Table 8, mGhrelin; for Results of assays of transcription factor (+/- ligand) with mGhrelin: Table 6d, luciferase activity relative to control (control = 1.00); for luciferase/LacZ, mGhrelin (selected results): mGhrelin promoter-luciferase, NHR +/- ligand, control = 1.0
How it was run: as §1

[5] = test system: hPOMC promoter; test: NHR-promoter luciferase screen, hPOMC promoter; format: cell-based, human; conditions: for Luc. act., normalized to lacZ / Normalized Luc. act., normalized to control: hPOMC promoter, HR/ligand component; for hPOMC promoter reporter activity: transcription factor +/- ligand, control = 1.00
How it was run: as §1

Molecule | Normalized Luc. act., normalized to control [1] | Luc. act., normalized to lacZ [1] | mUCP3 promoter reporter activity [1] | Luc. act., normalized to lacZ [2] | Normalized Luc. act., normalized to control [2] | Results of assays of transcription factor (+/- ligand) with mLeptin [2] | Luc. act., normalized to lacZ [3] | Normalized Luc. act., normalized to control [3] | hMDR1 promoter reporter activity [3] | Luc. act., normalized to lacZ [4] | Normalized Luc. act., normalized to control [4] | Results of assays of transcription factor (+/- ligand) with mGhrelin [4] | Luc. act., normalized to lacZ [5] | Normalized Luc. act., normalized to control [5] | hPOMC promoter reporter activity [5] | luciferase/LacZ, mLeptin (selected results) [2] | luciferase/LacZ, mGhrelin (selected results) [4] | luciferase/LacZ, hPOMC (selected results) ([5]; hPOMC promoter-luciferase, NHR +/- ligand, control = 1.0)
HNF4g: Hepatocyte Nuclear Factor γ (NR2A2), cDNA driver (protein, UniProt Q14541 1-408, looked up) Hepatocyte nuclear factor …: MNTTDNGVNCLCAICGDRATGKHYGASSCDGCKGFFRRSIRKSHVYSCRFSRQCVVDKDKRNQCRYCRLRKCFRAGMKKEAVQNERDRISTRRSTFDGSNIPSINTLAQAEVRSRQISVSSPGSSTDINVKKIASIGDVCESMKQQLLVLVEWAKYIPAFCELPLDDQVALLRAHAGEHLLLGATKRSMMYKDILLLGNNYVIHRNSCEVEISRVANRVLDELVRPFQEIQIDDNEYACLKAIVFFDPDAKGLSDPVKIKNMRFQVQIGLEDYINDRQYDSRGRFGELLLLLPTLQSITWQMIEQIQFVKLFGMVKIDNLLQEMLLGGASNDGSHLHHPMHPHLSQDPLTGQTILLGPMSTLVHADQISTPETPLPSPPQGSGQEQYKIAANQASVISHQHLSKQKQL | 0.8 | 0.6 | 0.84 | 2.4 | 0.8 | 0.82 | 0.2 | 0.8 | 0.75 | 58.1 | 1.1 | 1.11 | 5.3 | 1.2 | 1.23 | – | – | –
TR4: Testicular Orphan Nuclear Receptor 4 (NR2C2), cDNA driver (protein, UniProt P49116 1-596, looked up) Nuclear receptor subfamily 2 …: MTSPSPRIQIISTDSAVASPQRIQIVTDQQTGQKIQIVTAVDASGSPKQQFILTSPDGAGTGKVILASPETSSAKQLIFTTSDNLVPGRIQIVTDSASVERLLGKTDVQRPQVVEYCVVCGDKASGRHYGAVSCEGCKGFFKRSVRKNLTYSCRSNQDCIINKHHRNRCQFCRLKKCLEMGMKMESVQSERKPFDVQREKPSNCAASTEKIYIRKDLRSPLIATPTFVADKDGARQTGLLDPGMLVNIQQPLIREDGTVLLATDSKAETSQGALGTLANVVTSLANLSESLNNGDTSEIQPEDQSASEITRAFDTLAKALNTTDSSSSPSLADGIDTSGGGSIHVISRDQSTPIIEVEGPLLSDTHVTFKLTMPSPMPEYLNVHYICESASRLLFLSMHWARSIPAFQALGQDCNTSLVRACWNELFTLGLAQCAQVMSLSTILAAIVNHLQNSIQEDKLSGDRIKQVMEHIWKLQEFCNSMAKLDIDGYEYAYLKAIVLFSPDHPGLTSTSQIEKFQEKAQMELQDYVQKTYSEDTYRLARILVRLPALRLMSSNITEELFFTGLIGNVSIDSIIPYILKMETAEYNGQITGASL | 3.2 | 2.2 | 3.19 | 7.5 | 2.6 | 2.56 | 0.5 | 1.6 | 1.57 | 273.5 | 5.2 | 5.23 | 50.7 | 11.8 | 11.80 | 2.6 | 5.2 | 11.8
RORb: RAR-related Orphan Receptor β (NR1F2), cDNA driver (protein, UniProt Q92753 1-470, looked up) Nuclear receptor ROR-beta: MCENQLKTKADATAQIEVIPCKICGDKSSGIHYGVITCEGCKGFFRRSQQNNASYSCPRQRNCLIDRTNRNRCQHCRLQKCLALGMSRDAVKFGRMSKKQRDSLYAEVQKHQQRLQEQRQQQSGEAEALARVYSSSISNGLSNLNNETSGTYANGHVIDLPKSEGYYNVDSGQPSPDQSGLDMTGIKQIKQEPIYDLTSVPNLFTYSSFNNGQLAPGITMTEIDRIAQNIIKSHLETCQYTMEELHQLAWQTHTYEEIKAYQSKSREALWQQCAIQITHAIQYVVEFAKRITGFMELCQNDQILLLKSGCLEVVLVRMCRAFNPLNNTVLFEGKYGGMQMFKALGSDDLVNEAFDFAKNLCSLQLTEEEIALFSSAVLISPDRAWLIEPRKVQKLQEKIYFALQHVIQKNHLDDETLAKLIAKIPTITAVCNLHGEKLQVFKQSHPEIVNTLFPPLYKELFNPDCATGCK | 1.3 | 0.9 | 1.33 | 3.3 | 1.1 | 1.12 | 0.2 | 0.6 | 0.58 | 89.1 | 1.7 | 1.70 | 2.2 | 0.5 | 0.52 | – | – | –
TR2: Testicular Orphan Nuclear Receptor 2 (NR2C1), cDNA driver (protein, UniProt P13056 1-603, looked up) Nuclear receptor subfamily 2 …: MATIEEIAHQIIEQQMGEIVTEQQTGQKIQIVTALDHNTQGKQFILTNHDGSTPSKVILARQDSTPGKVFLTTPDAAGVNQLFFTTPDLSAQHLQLLTDNSPDQGPNKVFDLCVVCGDKASGRHYGAVTCEGCKGFFKRSIRKNLVYSCRGSKDCIINKHHRNRCQYCRLQRCIAFGMKQDSVQCERKPIEVSREKSSNCAASTEKIYIRKDLRSPLTATPTFVTDSESTRSTGLLDSGMFMNIHPSGVKTESAVLMTSDKAESCQGDLSTLANVVTSLANLGKTKDLSQNSNEMSMIESLSNDDTSLCEFQEMQTNGDVSRAFDTLAKALNPGESTACQSSVAGMEGSVHLITGDSSINYTEKEGPLLSDSHVAFRLTMPSPMPEYLNVHYIGESASRLLFLSMHWALSIPSFQALGQENSISLVKAYWNELFTLGLAQCWQVMNVATILATFVNCLHNSLQQDKMSTERRKLLMEHIFKLQEFCNSMVKLCIDGYEYAYLKAIVLFSPDHPSLENMEQIEKFQEKAYVEFQDYITKTYPDDTYRLSRLLLRLPALRLMNATITEELFFKGLIGNIRIDSVIPHILKMEPADYNSQIIGHSI | 2.0 | 1.4 | 2.01 | 3.4 | 1.1 | 1.15 | 0.3 | 1.0 | 1.01 | 63.2 | 1.2 | 1.21 | 15.7 | 3.6 | 3.65 | – | – | –
Erb: Estrogen Receptor β (NR3A2, ERb), cDNA driver (protein, UniProt Q92731 1-530, looked up) Estrogen receptor beta: MDIKNSPSSLNSPSSYNCSQSILPLEHGSIYIPSSYVDSHHEYPAMTFYSPAVMNYSIPSNVTNLEGGPGRQTTSPNVLWPTPGHLSPLVVHRQLSHLYAEPQKSPWCEARSLEHTLPVNRETLKRKVSGNRCASPVTGPGSKRDAHFCAVCSDYASGYHYGVWSCEGCKAFFKRSIQGHNDYICPATNQCTIDKNRRKSCQACRLRKCYEVGMVKCGSRRERCGYRLVRRQRSADEQLHCAGKAKRSGGHAPRVRELLLDALSPEQLVLTLLEAEPPHVLISRPSAPFTEASMMMSLTKLADKELVHMISWAKKIPGFVELSLFDQVRLLESCWMEVLMMGLMWRSIDHPGKLIFAPDLVLDRDEGKCVEGILEIFDMLLATTSRFRELKLQHKEYLCVKAMILLNSSMYPLVTATQDADSSRKLAHLLNAVTDALVWVIAKSGISSQQQSMRLANLLMLLSHVRHASNKGMEHLLNMKCKNVVPVYDLLLEMLNAHVLRGCKSSITGSECSPAEDSKSKEGSQNPQSQ | 1.3 | 0.9 | 1.28 | 2.5 | 0.9 | 0.86 | 0.3 | 1.1 | 1.06 | 47.5 | 0.9 | 0.91 | 3.2 | 0.7 | 0.74 | – | – | –
ERR2: Estrogen Related Receptor β (NR3B2, ERRb), cDNA driver (protein, UniProt O95718 1-433, looked up) Steroid hormone receptor ERR2: MSSDDRHLGSSCGSFIKTEPSSPSSGIDALSHHSPSGSSDASGGFGLALGTHANGLDSPPMFAGAGLGGTPCRKSYEDCASGIMEDSAIKCEYMLNAIPKRLCLVCGDIASGYHYGVASCEACKAFFKRTIQGNIEYSCPATNECEITKRRRKSCQACRFMKCLKVGMLKEGVRLDRVRGGRQKYKRRLDSESSPYLSLQISPPAKKPLTKIVSYLLVAEPDKLYAMPPPGMPEGDIKALTTLCDLADRELVVIIGWAKHIPGFSSLSLGDQMSLLQSAWMEILILGIVYRSLPYDDKLVYAEDYIMDEEHSRLAGLLELYRAILQLVRRYKKLKVEKEEFVTLKALALANSDSMYIEDLEAVQKLQDLLHEALQDYELSQRHEEPWRTGKLLLTLPLLRQTAAKAVQHFYSVKLQGKVPMHKLFLEMLEAKV | 3.3 | 2.2 | 3.32 | 9.7 | 3.3 | 3.30 | 0.4 | 1.2 | 1.20 | 365.8 | 7.0 | 7.00 | 11.6 | 2.7 | 2.70 | 3.3 | 7.0 | –
